Consider one molecule from publication PMC6609622, “Poly(ADP-ribose) polymerase-1 antagonizes DNA resection at double-strand breaks”.

The target in the data set is PARP-1 (human, UniProt P09874 1-1014). The experiment in a line: EMSA; 5 and 30 uM NAD+; remains bound; EMSA: 20 mM Na-HEPES pH 7.5, 0.1 mM DTT, 0.05% Triton X-100, 100 ug/mL BSA, 5 mM MgCl2, 2 mM ATP, 100 nM DNA, 37 C 10 min, then 0.2% glutaraldehyde 15 min; DNA. The settings on record: protein: recombinant; label: 32P; blunt. For orientation: A gel shift assay detects complexes by their altered migration in electrophoresis.
Sequence of PARP-1 (P09874 whole entry): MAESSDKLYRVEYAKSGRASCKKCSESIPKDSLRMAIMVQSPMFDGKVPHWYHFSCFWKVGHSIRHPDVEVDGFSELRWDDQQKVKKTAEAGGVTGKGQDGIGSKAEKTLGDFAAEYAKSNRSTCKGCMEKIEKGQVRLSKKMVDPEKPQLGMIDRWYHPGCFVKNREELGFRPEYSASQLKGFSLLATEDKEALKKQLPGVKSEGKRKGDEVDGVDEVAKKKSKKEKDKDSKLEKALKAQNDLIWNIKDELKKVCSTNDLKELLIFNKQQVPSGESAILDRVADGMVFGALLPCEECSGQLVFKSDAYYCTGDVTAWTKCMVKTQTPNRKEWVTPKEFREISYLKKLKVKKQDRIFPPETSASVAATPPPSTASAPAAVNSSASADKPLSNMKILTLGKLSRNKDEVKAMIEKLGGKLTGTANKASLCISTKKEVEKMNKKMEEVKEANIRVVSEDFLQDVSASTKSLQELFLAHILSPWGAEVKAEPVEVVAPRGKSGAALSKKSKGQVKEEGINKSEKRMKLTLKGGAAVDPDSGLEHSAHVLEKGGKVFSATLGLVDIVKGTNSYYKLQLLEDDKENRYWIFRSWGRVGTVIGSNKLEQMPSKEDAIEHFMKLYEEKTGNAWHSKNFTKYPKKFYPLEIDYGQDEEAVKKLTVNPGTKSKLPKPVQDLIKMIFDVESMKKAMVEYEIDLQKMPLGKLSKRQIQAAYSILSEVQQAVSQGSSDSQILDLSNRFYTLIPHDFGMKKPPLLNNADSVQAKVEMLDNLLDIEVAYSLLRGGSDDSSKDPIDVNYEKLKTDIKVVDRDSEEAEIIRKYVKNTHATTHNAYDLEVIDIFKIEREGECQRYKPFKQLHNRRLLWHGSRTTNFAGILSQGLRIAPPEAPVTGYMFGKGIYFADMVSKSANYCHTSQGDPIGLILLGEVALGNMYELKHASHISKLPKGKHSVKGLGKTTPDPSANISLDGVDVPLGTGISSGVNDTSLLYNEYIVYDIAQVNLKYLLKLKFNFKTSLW

B1: JYM696/JYM698 (dsDNA)
DNA 1: GGGCGAATTGGGCCCGACGTCGCATGCTCCTCTAGACTCGAGGAATTCGGTACCCCGGGTTCGAAATCGATAAGCTTACAGTCTCCATTTAAAGGACAAG
DNA 2: CTTGTCCTTTAAATGGAGACTGTAAGCTTATCGATTTCGAACCCGGGGTACCGAATTCCTCGAGTCTAGAGGAGCATGCGACGTCGGGCCCAATTCGCCC
For B1, the binding result is “binds”.
